Results: publication PMC5419741, “La-related protein 1 (LARP1) binds the mRNA cap, blocking eIF4F assembly on TOP mRNAs”

Experiments:
LARP1 DM15 [1] = target: T1, LARP1 DM15 (Homo sapiens, UniProt Q6PKG0-3 796-946); assay: EMSA; Competition assays: 20 mM Tris pH 8, 150 mM NaCl, 10% glycerol, 1 mM DTT, 0.5 ug BSA, 0.5 ug tRNA, 30 min on ice, native gel; EMSA as in Lahr et al. 2015 with RNA <=200 pM; conditions: protein: recombinant
LARP1 DM15 [2] = target: T1, LARP1 DM15; assay: crystal structure; Competition assays: 20 mM Tris pH 8, 150 mM NaCl, 10% glycerol, 1 mM DTT, 0.5 ug BSA, 0.5 ug tRNA, 30 min on ice, native gel; EMSA as in Lahr et al. 2015 with RNA <=200 pM; conditions: protein: recombinant
eIF4E = eIF4E (Homo sapiens, UniProt P06730 1-217); assay: competition; outcompetes DM15 as pre-bound or competitor protein; Competition assays: 20 mM Tris pH 8, 150 mM NaCl, 10% glycerol, 1 mM DTT, 0.5 ug BSA, 0.5 ug tRNA, 30 min on ice, native gel; EMSA as in Lahr et al. 2015 with RNA <=200 pM; conditions: protein: recombinant; tags: His6-MBP removed by TEV; label: 32P in cap
Sequence of eIF4E (P06730 whole entry): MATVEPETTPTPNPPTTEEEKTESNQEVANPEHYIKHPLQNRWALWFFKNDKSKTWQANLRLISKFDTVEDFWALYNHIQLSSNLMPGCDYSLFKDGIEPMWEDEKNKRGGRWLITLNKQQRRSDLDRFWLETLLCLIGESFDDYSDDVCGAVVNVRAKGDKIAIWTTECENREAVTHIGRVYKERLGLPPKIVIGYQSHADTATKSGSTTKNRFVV

Binder: CUCUCUUCCUCGGCGCUGCCUACGGAGGUGGCAGCCAUCUCC (ssRNA, 5' m7Gppp cap) [m7Gppp-RPL32 42mer]
- binding result (LARP1 DM15 [1]; label: 32P in cap): binds

Binder: CUUUUCCG (ssRNA) [RPS6 8mer]
- binding result (LARP1 DM15 [2]): binds

Binder: GCCUCUUUUCCGUGGCGCCUCGGAGGCGUUCAGCUGCUUCAAG (ssRNA) [G-RPS6 (uncapped non-TOP)]
- Kd (LARP1 DM15 [1]; label: 5' 32P): 7.5 µM

Binder: GCCUCUUUUCCGUGGCGCCUCGGAGGCGUUCAGCUGCUUCAAG (ssRNA, 5' m7Gppp cap) [m7Gppp-G-RPS6 (capped non-TOP)]
- Kd (LARP1 DM15 [1]; label: 32P in cap): 2 µM
- binding result (eIF4E): binds

Binder: CCUCUUUUCCGUGGCGCCUCGGAGGCGUUCAGCUGCUUCAAG (ssRNA, 5' m7Gppp cap) [m7Gppp-RPS6 42mer (capped TOP)]
- Kd (LARP1 DM15 [1]; label: 32P in cap): 0.021 µM
